In US20190233493A1 (Sanofi, published 2019):
*1 amine or outer side, *2 acyl side, *3 side chain or, on linkers, in order; H or OH if unused. Primed or numbered codes have the meaning given here. Side-chain parts run from the residue outwards. [ ]: non-standard residue; d: D form. The star is where a group is joined. PEG4′ = 2-[2-[2-[2-[2-aminoethoxy]ethoxy]ethoxy]ethoxy]propanoyl; Lys(Me3) = C[N+](C)(C)CCCC[C@H](N)C(=O)O; αMeW = C[C@](N)(Cc1c[nH]c2ccccc12)C(=O)O; γGlu = O=C(O)[C@H](CCC(=O)[*:2])N[*:1]; Arg(Me) = CNC(=N)NCCC[C@H](N)C(=O)O; Stearoyl = CCCCCCCCCCCCCCCCCC(=O)*; Palmitoyl = CCCCCCCCCCCCCCCC(=O)*; Cit = NC(=O)NCCC[C@H](N)C(=O)O; αMeK = C[C@](N)(CCCCN)C(=O)O; Lauroyl = CCCCCCCCCCCC(=O)*; Nle = CCCC[C@H](N)C(=O)O; PEG2′ = PEG2 spacer unit; Aib = CC(C)(N)C(=O)O

B1: peptide of SEQ ID NO: 122 (peptide)
peptide: LEGREKVRAQIXXEGXSTWSXRKKKX
modifications: Ac-L-E-G-R-E-K-V-R-A-Q-I-Aib-Aib-E-G-Nle-S-T-W-S-Aib-R-K-K-K-PEG4-PEG4-K(gE-gE-gE-gE-gE-Stea)-NH2
B2: peptide of SEQ ID NO: 136 (peptide)
peptide: Ac-LEGREKVRAK(Ac)I[Aib][Aib]EG[Nle]STWSXRKK(Ac)[PEG2′][PEG2′][PEG2′][PEG2′][γGlu][γGlu][γGlu]K([γGlu-Palmitoyl])-NH2
modifications: not fully specified (some residues); printed as Ac-L-E-G-R-E-K-V-R-A-K(Ac)-I-Aib-Aib-E-G-Nle-S-T-W-S-Mly-R-K-K(Ac)-PEG2-PEG2-PEG2-PEG2-gE-gE-gE-K(gE-Palm)-NH2

Molecular target: T1, RXFP1 receptor (UniProt Q9HBX9 1-757, limits assumed)
T1 sequence (looked up): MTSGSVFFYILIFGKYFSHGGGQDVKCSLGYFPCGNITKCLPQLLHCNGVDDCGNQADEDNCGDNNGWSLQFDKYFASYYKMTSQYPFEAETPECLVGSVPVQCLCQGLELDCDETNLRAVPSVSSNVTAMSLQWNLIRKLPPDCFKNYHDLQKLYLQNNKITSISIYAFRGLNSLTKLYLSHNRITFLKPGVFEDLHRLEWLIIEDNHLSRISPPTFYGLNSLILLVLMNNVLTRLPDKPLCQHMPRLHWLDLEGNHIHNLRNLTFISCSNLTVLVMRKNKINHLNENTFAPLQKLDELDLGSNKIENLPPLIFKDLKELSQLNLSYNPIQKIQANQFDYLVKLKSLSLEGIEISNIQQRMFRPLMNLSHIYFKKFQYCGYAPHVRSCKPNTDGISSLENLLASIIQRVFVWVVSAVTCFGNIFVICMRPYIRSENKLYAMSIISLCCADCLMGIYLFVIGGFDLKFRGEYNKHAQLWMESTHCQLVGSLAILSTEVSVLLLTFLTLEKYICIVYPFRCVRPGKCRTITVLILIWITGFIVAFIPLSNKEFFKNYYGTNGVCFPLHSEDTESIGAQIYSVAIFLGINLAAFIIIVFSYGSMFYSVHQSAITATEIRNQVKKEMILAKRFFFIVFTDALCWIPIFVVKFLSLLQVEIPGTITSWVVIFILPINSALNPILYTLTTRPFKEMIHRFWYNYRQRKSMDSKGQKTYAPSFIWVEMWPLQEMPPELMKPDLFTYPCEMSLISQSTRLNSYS
Assay: cell-based or functional assay

| EC50 (nM), OVCAR 5 cells (cAMP) | EMax, OVCAR 5 cells (cAMP) | Binder |
| --- | --- | --- |
| 6.3 nM | 100% | Ac-LEGREKVRAK(Ac)I[Aib][Aib]EG[Nle]STWS[Aib]R[Lys(Me3)]K(Ac)K([PEG2′-PEG2′-PEG2′-γGlu-γGlu-γGlu-Stearoyl])-NH2 [peptide of SEQ ID NO: 134] |
| 0.01 nM | 83% | Ac-LEGREKVRAK(Ac)I[Aib][Aib]EG[Nle]STWS[Aib][Arg(Me)]KK(Ac)K([PEG2′-PEG2′-PEG2′-γGlu-γGlu-γGlu-Stearoyl])-NH2 [peptide of SEQ ID NO: 133] |
| 1.79 nM | 86% | Ac-LEGREKVRAQI[Aib][Aib]EG[Nle]STWS[Aib]RKK(Ac)[PEG2′][PEG2′][γGlu][γGlu]K([γGlu-Palmitoyl])-NH2 [peptide of SEQ ID NO: 118] |
| 0.1 nM | 93% | B1 |
| 9.6 nM | 91% | Ac-LEGREKVRAK(Ac)I[Aib][Aib]EG[Nle]STWS[Aib][Cit]AK(Ac)K([PEG2′-PEG2′-PEG2′-γGlu-γGlu-γGlu-Stearoyl])-NH2 [peptide of SEQ ID NO: 126] |
| 110 nM | 92% | Ac-LEGREKVRAK(Ac)I[Aib][Aib]EG[Nle]STWS[Aib]RKK(Ac)K([PEG2′-PEG2′-PEG2′-γGlu-γGlu-γGlu-Lauroyl])-NH2 [peptide of SEQ ID NO: 120] |
| 1.16 nM | 86% | Ac-LEGREKVRAK(Ac)I[Aib][Aib]EG[Nle]STWS[Aib]RKK(Ac)[PEG2′][PEG2′][PEG2′][γGlu][γGlu]K([γGlu-Palmitoyl])-NH2 [peptide of SEQ ID NO: 117] |
| 0.95 nM | 97% | Ac-LEGREKVRAK(Ac)I[Aib][Aib]EG[Nle]STWS[αMeK]RAK(Ac)K([PEG2′-PEG2′-PEG2′-PEG2′-γGlu-γGlu-γGlu-Stearoyl])-NH2 [peptide of SEQ ID NO: 135] |
| 0.1 nM | 89% | Ac-LEGREKVRAK(Ac)I[Aib][Aib]EG[Nle]ST[αMeW]S[αMeK]RKK(Ac)[PEG2′][PEG2′][PEG2′]K([γGlu-γGlu-γGlu-γGlu-Palmitoyl])-NH2 [peptide of SEQ ID NO: 125] |
| 1 nM | 89% | Ac-LEGREKVRAK(Ac)I[Aib][Aib]EG[Nle]STWS[Aib]RKK(Ac)[PEG2′][PEG2′][PEG2′][PEG2′][γGlu][γGlu]K([γGlu-Palmitoyl])-NH2 [peptide of SEQ ID NO: 116] |
| 0.22 nM | 91% | Ac-LEGREKVRAK(Ac)I[Aib][Aib]EG[Nle]STWS[Aib]RKK(Ac)K([PEG2′-PEG2′-PEG2′-γGlu-γGlu-γGlu-γGlu-Stearoyl])-NH2 [peptide of SEQ ID NO: 128] |
| 0.3 nM | 93% | Ac-LEGREKVRAK(Ac)I[Aib][Aib]EG[Nle]STWS[Aib]RKK(Ac)K([PEG2′-PEG2′-PEG2′-PEG2′-γGlu-γGlu-γGlu-γGlu-Palmitoyl])-NH2 [peptide of SEQ ID NO: 130] |
| 0.26 nM | 92% | Ac-LEGREKVRAK(Ac)I[Aib][Aib]EG[Nle]STWS[αMeK]RKK(Ac)[PEG2′][PEG2′][PEG2′][PEG2′]K([γGlu-γGlu-γGlu-γGlu-Palmitoyl])-NH2 [peptide of SEQ ID NO: 131] |
| 0.04 nM | 88% | Ac-LEGREKVRAK(Ac)I[Aib][Aib]EG[Nle]STWS[Aib]RKK(Ac)[PEG2′][PEG2′][PEG2′]K([γGlu-γGlu-γGlu-Stearoyl])-NH2 [peptide of SEQ ID NO: 14] |
| 0.38 nM | 88% | Ac-LEGREKVRAK(Ac)I[Aib][Aib]EG[Nle]STWS[Aib]RKK(Ac)[PEG4′]K([γGlu-γGlu-γGlu-Stearoyl])-NH2 [peptide of SEQ ID NO: 123] |
| 1 nM | 89% | Ac-LEGREKVRAK(Ac)I[Aib][Aib]EG[Nle]STWS[αMeK][Cit]KK(Ac)K([PEG2′-PEG2′-PEG2′-γGlu-γGlu-γGlu-Stearoyl])-NH2 [peptide of SEQ ID NO: 129] |
| 0.03 nM | 92% | B2 |
| 0.76 nM | 91% | Ac-LEGREKVRAQI[Aib][Aib]EG[Nle]STWS[Aib]RKK(Ac)[PEG2′][PEG2′][PEG2′][PEG2′][γGlu][γGlu]K([γGlu-Palmitoyl])-NH2 [peptide of SEQ ID NO: 121] |
| 1.21 nM | 83% | Ac-LEGREKVRAQI[Aib][Aib]EG[Nle]STWS[Aib]RKK(Ac)[PEG2′][PEG2′][PEG2′][γGlu][γGlu]K([γGlu-Palmitoyl])-NH2 [peptide of SEQ ID NO: 119] |
| 8.1 nM | 81% | Ac-LEGREKVRAQI[Aib][Aib]EG[Nle]STWS[Aib]RK[PEG2′]K([PEG2′-PEG2′-γGlu-γGlu-γGlu-Palmitoyl])-NH2 [peptide of SEQ ID NO: 13] |
| 0.29 nM | 88% | Ac-LEGREKVRAK(Ac)I[Aib][Aib]EG[Nle]STWS[Aib]RKK(Ac)[PEG4′][PEG4′]K([γGlu-γGlu-γGlu-Stearoyl])-NH2 [peptide of SEQ ID NO: 124] |
| 1.7 nM | 87% | Ac-LEGREKVRAK(Ac)I[Aib][Aib]EG[Nle]STWS[αMeK][Cit]AK(Ac)K([PEG2′-PEG2′-PEG2′-PEG2′-γGlu-γGlu-γGlu-Stearoyl])-NH2 [peptide of SEQ ID NO: 132] |
